The text below walks through data of ChEMBL document CHEMBL1150988, “-lactam-recognizing enzymes exhibit different structural specificity in acyclic amide and ester substrates: a starting point in -lactamase evolution?” (Bioorg Med Chem Lett, 1994).

Common to all, as to settings: enterococcus cloacae
Substrate in data set [1]: C[C@@H](SC(=O)CNC(=O)Cc1ccccc1)C(=O)O
In words: (§1) Km against P99 beta-lactamase.

Substrate in data set [2]: C[C@@H](OC(=O)CNC(=O)Cc1ccccc1)C(=O)O
The description is as §1.

Substrate in data set [3]: CC(=O)NCCCC[C@H](NC(C)=O)C(=O)NCC(=O)O[C@H](C)C(=O)O
The description is as §1.

Substrate in data set [4]: CC(=O)NCCCC[C@H](NC(C)=O)C(=O)N[C@@H](C)C(=O)O[C@H](C)C(=O)O
The data set is described as §1.

Substrate in data set [5]: C[C@H](NC(=O)Cc1ccccc1)C(=O)O[C@H](C)C(=O)O
The description is as §1.

Substrate in data set [6]: CC(=O)NCCCC[C@H](NC(C)=O)C(=O)NCC(=O)S[C@H](C)C(=O)O
Described as §1.

B1: Beta-lactamase (Enterobacter cloacae), P05364 (protein)
chain: MMRKSLCCALLLGISCSALATPVSEKQLAEVVANTITPLMKAQSVPGMAVAVIYQGKPHYYTFGKADIAANKPVTPQTLFELGSISKTFTGVLGGDAIARGEISLDDAVTRYWPQLTGKQWQGIRMLDLATYTAGGLPLQVPDEVTDNASLLRFYQNWQPQWKPGTTRLYANASIGLFGALAVKPSGMPYEQAMTTRVLKPLKLDHTWINVPKAEEAHYAWGYRDGKAVRVSPGMLDAQAYGVKTNVQDMANWVMANMAPENVADASLKQGIALAQSRYWRIGSMYQGLGWEMLNWPVEANTVVEGSDSKVALAPLPVAEVNPPAPPVKASWVHKTGSTGGFGSYVAFIPEKQIGIVMLANTSYPNPARVEAAYHILEALQ
B1: the Km in data set [1] was determined as 3.3 mM; in data set [2] it was 8.1 mM; in data set [3] it was 36.1 mM; in data set [4], 26.9 mM; in data set [5], 23.4 mM; in data set [6], 6.7 mM.
